Source: patent US20250388666A1 (BRIGHAM AND WOMEN S HOSPITAL, published 2025)
Where a chain is given by its changes, count along the chain named. Names may count otherwise.

Tests used:
[1] = biological target: T1, CEACAM1-HIS (Sino Biologics Inc.) (Homo sapiens (Human), UniProt P13688 35-428); experiment: SPR multi-cycle, IgG on Protein A
T1 construct: bought; not shown: His tag
T1 sequence: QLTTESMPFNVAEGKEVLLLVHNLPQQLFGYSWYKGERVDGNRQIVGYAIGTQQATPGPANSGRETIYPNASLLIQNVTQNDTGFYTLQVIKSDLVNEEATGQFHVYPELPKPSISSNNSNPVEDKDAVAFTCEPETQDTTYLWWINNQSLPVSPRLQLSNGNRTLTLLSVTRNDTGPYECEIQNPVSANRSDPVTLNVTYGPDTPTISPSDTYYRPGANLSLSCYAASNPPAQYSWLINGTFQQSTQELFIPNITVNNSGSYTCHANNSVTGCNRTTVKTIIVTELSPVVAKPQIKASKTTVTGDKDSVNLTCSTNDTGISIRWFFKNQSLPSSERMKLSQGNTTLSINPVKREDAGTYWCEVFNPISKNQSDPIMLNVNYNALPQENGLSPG
Protocol: (§1) As an alternative approach to assess the binding of the antibody combinations and the control antibodies to CEACAM1, a kinetic analysis was performed on a Biacore T200 running Biacore T200 Evaluation Software V2.0.1. All experiments were run at 25° C. with HBS-P+ running buffer (pH 7.4).
For multi-cycle kinetic analysis purified antibody was immobilized at a protein concentration of 1 μg/mL in HBS-P+. At the start of each cycle, antibody was captured on Protein A to give an RU of ˜100 and the surface allowed to stabilize. Kinetic data was obtained at a flow rate of 35 μl/min to minimize any potential mass transfer effects. Multiple repeats of the blank (no CEACAM1) and a repeat of a single concentration of the analyte were programmed into the kinetic run in order to check the stability of both the surface and analyte over the kinetic cycles. For kinetic analysis, a 2-fold dilution series was selected from 100 to 1.5625 nM CEACAM1. The association phase of CEACAM1 was monitored initially for 180 seconds. In the subsequent experiment a longer association time (275 seconds) was used in order to better reach steady state. The dissociation phase was measured for 250 seconds. Regeneration of the Protein A surface was conducted using 2 injections of 10 mM glycine-HCL pH 1.5 at the end of each cycle.
The signal from the reference channel Fc1 was subtracted from that of Fc2, Fc3 and Fc4 to correct for differences in non-specific binding to a reference surface, a global Rmax parameter was used in the 1-to-1 binding model. The relative KD compared to the chimeric parental antibody was calculated by dividing the KD of the Composite Human Antibody™ variants by that of the chimeric parental antibody on the same chip.

[2] = biological target: T1, CEACAM1-HIS (Sino Biologics Inc.); experiment: SPR multi-cycle
[3] = biological target: T1, CEACAM1-HIS (Sino Biologics Inc.); experiment: SPR single-cycle, IgG on Protein A
Protocol: as §1
In order to assess the binding of all Composite Human Antibody™ variants, single cycle kinetic analysis was performed on the supernatants of all the transiently transfected HEK EBNA cells. Purified chimeric antibody and purified chimeric antibody spiked into HEK EBNA media were used as positive controls. Supernatants were diluted in HBS-P+ to a concentration of 1 μg/mL (as determined by an IgG quantitation ELISA). At the start of each cycle, antibodies were loaded onto Fc2, Fc3 and Fc4 of a Protein A chip and captured at a flow rate of 8 μL/min to give an RU of ˜100. The surface was then allowed to stabilize. Single cycle kinetic data was obtained at a flow rate of […] to minimize any potential mass transfer effects. Multiple repeats of the chimeric antibody were performed to check the stability of the surface and analyte over the kinetic cycles. The signal from the reference channel Fc1 (no antibody) was subtracted from that of Fc2, Fc3 and Fc4 to correct for differences in non-specific binding to a reference surface. A 5 point 2-fold dilution range from 3.125 to 50 nM CEACAM1 without regeneration between each concentration was used. The association phase for the 5 injections of increasing concentrations of CEACAM1 was monitored for 150 seconds and a single dissociation phase was measured for 150 seconds following the last injection of CEACAM1. Regeneration of the Protein A was conducted using 2 injections of 10 mM glycine-HCL pH 1.5 followed by a stabilization period of 500 seconds.
In the raw sensorgrams for the single cycle kinetics, the signal from each antibody blank run (no CEACAM1) was subtracted to correct for differences in surface stability.

human GST-CEACAM1 = biological target: T2, human GST-CEACAM1 (human, UniProt P13688 35-141, limits assumed); experiment: competition ELISA vs murine parent antibody
T2 construct: printed both as GST-CEACAM1 and CEACAM1-GST; also called human CEACAM1-GST protein; hCEACAM1-GST; not shown: GST tag
T2 sequence: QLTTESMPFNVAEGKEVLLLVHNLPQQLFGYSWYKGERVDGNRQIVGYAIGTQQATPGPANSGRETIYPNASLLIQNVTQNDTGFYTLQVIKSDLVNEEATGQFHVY
Protocol: The binding of the purified chimeric antibody to human CEACAM1 was assessed in a competition ELISA assay. Nunc Immuno MaxiSorp 96 well flat bottom microtitre plates were pre-coated with 1 μg/ml human GST-CEACAM1 in 1×PBS, overnight at 4° C. The following day the plates were blocked for 1 hour at room temperature with 2% BSA/PBS before washing 2× with PBS/0.05% Tween 20 pH 7.4.
The binding of the purified antibodies to human CEACAM1 were assessed in a competition ELISA assay as described above. The ability of each variant to compete against the murine parental antibody for binding to the GST-CEACAM1 was compared to that of the chimeric antibody (VH0/Vκ0), which was included on each plate.

[4] = biological target: T3, CEACAM1 (Sino Biological) (human, UniProt P13688 35-428, limits assumed); experiment: SPR single-cycle
T3 construct: may be the same as CEACAM1-HIS; also called hCEACAM1; biotinylated soluble CEACAM1
T3 sequence: T1 sequence
Method in brief: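 Humanized affinity-matured IgGs from crude supernatants captured on Protein A to ~100 RU, with CEACAM1 analyte injected at 25–100 nM (three-point, two-fold) in HBS-P+ without regeneration. 200 s association per injection, 300 s single dissociation; reference-channel and blank subtracted.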

[5] = biological target: T3, CEACAM1 (Sino Biological); experiment: SPR multi-cycle, IgG on Protein A
Protocol: Multi-cycle kinetics analysis was performed on the twelve lead antibodies using a Biacore T200 instrument running Biacore T200 Evaluation Software V3.0.1 (Uppsala, Sweden) to establish an accurate affinity for CEACAM1. The purified antibodies were diluted to a concentration of […] in HBS-P+. At the start of each cycle, each antibody was captured on the Protein A surface to give an RL of ˜100 RU. Following capture, the surface was allowed to stabilize. Kinetic data was obtained using a flow rate of […] to minimize any potential mass transfer effects. For the kinetics analysis, CEACAM1 was used. Multiple repeats of the blank ([…]) and a repeat of a single concentration of the analyte were programmed into the kinetic run in order to check the stability of both the surface and analyte over the kinetic cycles. For kinetic analysis, a two-fold dilution range was selected from 200 to 3.125 nM CEACAM1. The association phase of CEACAM1 was monitored for 275 seconds and the dissociation phase was measured for 250 seconds. Regeneration of the Protein A surface was conducted using two injections of 10 mM glycine-HCL pH 1.5 at the end of each cycle.
The signal from the reference channel Fc1 was subtracted from that of Fc2, Fc3 and Fc4 to correct for differences in non-specific binding to a reference surface, and a global Rmax parameter was used in the 1-to-1 binding model. The relative KD was calculated by dividing the KD of the RSB02 Parent by that of the humanized and affinity matured variants on the same chip.

[6] = biological target: T4, CEACAM3 (Sino Biological) (human, UniProt P40198 35-155, limits assumed); experiment: binding ELISA on plate-coated CEACAM (0.5 µg/mL); antibody at 1.67, 0.062 and 0.0069 µg/mL; signal as % of parent IgG on CEACAM1 at 1.67 µg/mL on the same plate
T4 construct: also called hCEACAM3
T4 sequence (looked up): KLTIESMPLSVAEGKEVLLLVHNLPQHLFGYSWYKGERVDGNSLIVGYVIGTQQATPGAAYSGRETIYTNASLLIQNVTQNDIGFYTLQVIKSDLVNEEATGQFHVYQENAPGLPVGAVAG

B1: VH1/Vκ1 (antibody, V domains shown)
VH: EVQLLESGGGLVQPGGSLRLSCAASGFIFSSHGMSWVRQAPGKGLEWVATISSGGTYTYYPDSVKGRFTISRDNSKNTLYLQMNSLKAEDTAMYYCARHDFDYDAAWFAYWGQGTLVTVSS
VL: QIVLTQSPALLSLSPGERATMSCSANSSVSYMYWYRQKPGQAPKPWIYLTSNLASGVPARFSGSGSGTDYTLTISSLEAEDFATYYCQQWSSNPPTFGQGTKLEIK
Question: Which Kd [1] does the source give for B1 here?
Answer: 0.0381 µM

Question: And the koff [1]?
Answer: 0.00384 s⁻¹

Question: What about the kon [1] of the same binder?
Answer: 101000 M⁻¹ s⁻¹

Question: What about the “relative KD to chimeric parental antibody” value [1] of the same binder?
Answer: 1.4 ratio

Question: What about the “average relative KD to chimeric parental antibody” value (shortened to “average relative KD”) [2] of the same binder?
Answer: 1.45 ratio

Question: What about the “relative KD to chimeric parental antibody expt 1” value [2] of the same binder?
Answer: 1.5 ratio

Question: What about the “relative KD to chimeric parental antibody expt 2” value [2] of the same binder?
Answer: 1.4 ratio

Question: What about the Kd [3] of the same binder?
Answer: 0.0934 µM

Question: And the “relative KD to chimeric parental antibody” value [3]?
Answer: 2.2 ratio

Question: And the “average relative IC50 (normalized to chimeric antibody)” value (human GST-CEACAM1)?
Answer: 1.5 ratio

B2: VH2/Vκ2 (antibody, V domains shown)
VH: B1 VH with K87R
VL: B1 VL with Q1E, L10T, M21L, S24R, R36Q, K44R, L53R, S55T, A79P
Question: Which Kd [1] does the source give for B2 here?
Answer: 0.0278 µM

Question: What about the koff [1] of the same binder?
Answer: 0.00496 s⁻¹

Question: What about the kon [1] of the same binder?
Answer: 179000 M⁻¹ s⁻¹

Question: And the “relative KD to chimeric parental antibody” value [1]?
Answer: 1.25 ratio

Question: What about the “average relative KD” value [2] of the same binder?
Answer: 1.27 ratio

Question: What about the “relative KD to chimeric parental antibody expt 1” value [2] of the same binder?
Answer: 1.29 ratio

Question: And the “relative KD to chimeric parental antibody expt 2” value [2]?
Answer: 1.25 ratio

Question: And the Kd [3]?
Answer: 0.138 µM

Question: What about the “relative KD to chimeric parental antibody” value [3] of the same binder?
Answer: 3.2 ratio

Question: And the “average relative IC50 (normalized to chimeric antibody)” value (human GST-CEACAM1)?
Answer: 1.6 ratio

B3: VH2/Vκ1 (antibody, V domains shown)
VH: B1 VH with K87R
VL: B1 VL
Question: With B3 as the binder, how does the Kd [1] read?
Answer: 0.0333 µM

Question: What about the koff [1] of the same binder?
Answer: 0.0052 s⁻¹

Question: And the kon [1]?
Answer: 156000 M⁻¹ s⁻¹

Question: And the “relative KD to chimeric parental antibody” value [1]?
Answer: 1.22 ratio

Question: What about the “average relative KD” value [2] of the same binder?
Answer: 1.31 ratio

Question: And the “relative KD to chimeric parental antibody expt 1” value [2]?
Answer: 1.39 ratio

Question: And the “relative KD to chimeric parental antibody expt 2” value [2]?
Answer: 1.22 ratio

Question: And the Kd [3]?
Answer: 0.18 µM

Question: And the “relative KD to chimeric parental antibody” value [3]?
Answer: 4.2 ratio

Question: What about the “average relative IC50 (normalized to chimeric antibody)” value (human GST-CEACAM1) of the same binder?
Answer: 1.7 ratio

B4: VH1/Vκ2 (antibody, V domains shown)
VH: B1 VH
VL: B1 VL with Q1E, L10T, M21L, S24R, R36Q, K44R, L53R, S55T, A79P
Question: With B4 as the binder, how does the Kd [1] read?
Answer: 0.0283 µM

Question: And the koff [1]?
Answer: 0.00551 s⁻¹

Question: What about the kon [1] of the same binder?
Answer: 195000 M⁻¹ s⁻¹

Question: What about the “relative KD to chimeric parental antibody” value [1] of the same binder?
Answer: 1.27 ratio

Question: And the “average relative KD” value [2]?
Answer: 1.46 ratio

Question: And the “relative KD to chimeric parental antibody expt 1” value [2]?
Answer: 1.66 ratio

Question: And the “relative KD to chimeric parental antibody expt 2” value [2]?
Answer: 1.27 ratio

Question: And the Kd [3]?
Answer: 0.148 µM

Question: And the “relative KD to chimeric parental antibody” value [3]?
Answer: 3.4 ratio

Question: And the “average relative IC50 (normalized to chimeric antibody)” value (human GST-CEACAM1)?
Answer: 1.3 ratio

B5: He17/L1 (antibody, IgG4, V domains shown)
VH: EVQLLESGGGLVQPGGSLRLSCAASGFSFSDYYLYWVRQAPGKGLEWVATISVGGGQTSYADSVKGRFTISRDNSKNTLYLQMNSLRAEDTAMYYCTRARTYGPAWFAYWGQGTLVTVSS
VL: DIVMTQSPDSLAVSLGERATINCKSSQSLLNSANQKNYLAWYQQKPGQPPKLLIYFASTRESGVPDRFSGSGSGTDFTLTISSLQAEDVAVYYCQSHYPFYYTFGGGTKVEIK
notes: IgG4 S241P, kappa; also called 17 / 1; H17/L1
Question: Which results are given for B5?
Answer: Kd [4]: 0.078 µM; fold better than Parent (KD) [4]: 2.03 fold; Kd [5]: 0.0135 µM; koff [5]: 0.00409 s⁻¹; kon [5]: 302000 M⁻¹ s⁻¹; relative KD to Parent [5]: 6.31 ratio; binding result [6]: no binding (tested: 1.67 µg/mL)
